According to the supplement of paper PMC7877785:
± gives the uncertainty stated by the source.

Test: self-splicing fitness, log relative to wild type (ln ratio); higher = more splicing; Tetrahymena group I intron in knt gene, E. coli kanamycin selection, DiMSum; sequences stand for … in CUCUCU…GGAGGGAAAAGUUAUCAGGCAUGCACCUGGUAGCUAGUCUUUAAACCAAUAGAUUGCAUCGGUUUAAAAGGCAAGACCGUCAAAUUGCGGGAAAGGGGUCAACAGCCGUUCAGUACCAAGUCUCAGGGGAAACUUUGAGAUGGCCUUGCAAAGGGUAUGGUAAUAAGCUGACGGACAUGGUCCUAACCACGCAGCCAAGUCCUAAGUCAACAGAUCUUCUGUUGAUAUGGAUGCAGUUCACAGACUAAAUGUCGGUCGGGGAAGAUGUAUUCUUCUCAUAAGAUAUAGUCGGACCUCUCCUUAAUGGGAGCUAGCGGAUGAAGUGAUGCAACACUGGAGCCGCUGGGAACUAAUUUGUAUGCGAAAGUAUAUUGAUUAGUUUUGGAGUACUCGUGGUCG
Outline: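 DiMSum derived fitness as the error-weighted combination of fold changes across replicates, kanamycin versus no kanamycin, normalised to wild type. E. coli BL21(DE3) held the library, which randomised all eight P1ex-region intron nucleotides within the knt kanamycin-resistance gene on pET-22b(+). Six replicate transformations grew overnight at 37°C or 30°C on LB agar with or without 25 μg/mL kanamycin, also containing 100 μg/mL carbenicillin, 50 μM IPTG and 0.2% rhamnose, and pooled colonies were amplicon-sequenced on an Illumina HiSeq 2500.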

Row | Sequence | self-splicing fitness (ln) (30 °C) | self-splicing fitness (ln) (37 °C)
1 | AGCUAGCAAUAUUACGGAUC | -1.26 ± 0.12 | -1.54 ± 0.16
2 | GCUGAGCAAUAUUACGUCGG | – | -1.27 ± 0.41
3 | AAUCAGCAAUAUUACGUCCU | 0.497 ± 0.09 | 0.632 ± 0.11
4 | GGAUAGCAAUAUUACGGGCU | -2.29 ± 0.14 | -0.442 ± 0.12
5 | GCGCAGCAAUAUUACGCUUA | -0.793 ± 0.062 | -0.338 ± 0.067
6 | GAGGAGCAAUAUUACGAUUU | -1.07 ± 0.1 | -0.084 ± 0.13
7 | UGUUAGCAAUAUUACGGUAC | – | -2.68 ± 0.48
8 | UUAGAGCAAUAUUACGGGCG | -2.23 ± 0.14 | -1.13 ± 0.17
9 | GAGCAGCAAUAUUACGUUGC | -4.45 ± 0.34 | -3.41 ± 0.23
10 | UGUUAGCAAUAUUACGAGGU | -3.93 ± 0.28 | -2.8 ± 0.33
11 | UUGAAGCAAUAUUACGGACC | -1.12 ± 0.14 | -0.125 ± 0.2
12 | GGUCAGCAAUAUUACGCCUU | -0.559 ± 0.051 | 0.122 ± 0.069
13 | UGGCAGCAAUAUUACGAUUC | – | -1.46 ± 0.32
14 | GUCCAGCAAUAUUACGGAAG | -0.697 ± 0.079 | 0.124 ± 0.084
15 | GGCUAGCAAUAUUACGUGCU | -2.34 ± 0.24 | -1.27 ± 0.14
16 | ACUUAGCAAUAUUACGAUGG | -2.19 ± 0.099 | -1.16 ± 0.12
17 | UGACAGCAAUAUUACGAUCC | -0.422 ± 0.09 | 0.083 ± 0.11
18 | UCCCAGCAAUAUUACGUCAG | -3.74 ± 0.16 | -2.83 ± 0.16
19 | AACCAGCAAUAUUACGAACC | -0.246 ± 0.13 | 0.00425 ± 0.19
20 | UCAUAGCAAUAUUACGAUCU | -3.02 ± 0.19 | -1.88 ± 0.18
21 | CCGUAGCAAUAUUACGUCCA | -2.27 ± 0.28 | -3.26 ± 0.28
22 | GGAGAGCAAUAUUACGCUGA | -2.98 ± 0.19 | -1.36 ± 0.24
23 | UUGAAGCAAUAUUACGCUUC | -2.86 ± 0.49 | -2.06 ± 0.39
24 | UACGAGCAAUAUUACGCUGA | -3 ± 0.26 | -2.02 ± 0.24
25 | GACCAGCAAUAUUACGAAAC | -1.43 ± 0.099 | 0.296 ± 0.11

Row | Sequence | self-splicing fitness (ln) (30 °C) | self-splicing fitness (ln) (37 °C)
26 | UGCCAGCAAUAUUACGGCAC | -2.9 ± 0.33 | -2.56 ± 0.3
27 | ACGUAGCAAUAUUACGGCAA | -1.49 ± 0.1 | -1.15 ± 0.09
28 | AGCGAGCAAUAUUACGACGA | -1.13 ± 0.22 | -2.2 ± 0.31
29 | CCGGAGCAAUAUUACGGAUG | -2.78 ± 0.22 | -1.92 ± 0.23
30 | CUAGAGCAAUAUUACGCACG | -0.957 ± 0.15 | -0.23 ± 0.24
31 | AGCCAGCAAUAUUACGCAAA | -2.91 ± 0.34 | -2.36 ± 0.2
32 | CGAAAGCAAUAUUACGUUUG | -2.33 ± 0.12 | -1.74 ± 0.14
33 | CCAUAGCAAUAUUACGUAAU | -3.14 ± 0.15 | -3.15 ± 0.23
34 | CGGAAGCAAUAUUACGUUGC | -3.59 ± 0.26 | -2.69 ± 0.48
35 | UUGAAGCAAUAUUACGAACG | 0.338 ± 0.093 | 0.443 ± 0.12
36 | CAACAGCAAUAUUACGGGAG | -1.23 ± 0.051 | -1.03 ± 0.063
37 | GGCGAGCAAUAUUACGACUU | 0.166 ± 0.15 | 0.444 ± 0.14
38 | AUGUAGCAAUAUUACGGACG | -3.24 ± 0.2 | -1.09 ± 0.13
39 | CUACAGCAAUAUUACGUAAU | -3.8 ± 0.19 | -2.84 ± 0.18
40 | AGCGAGCAAUAUUACGAUAG | -3.64 ± 0.43 | -1.76 ± 0.35
41 | GAGGAGCAAUAUUACGAAGG | -4.59 ± 0.46 | -2.39 ± 0.27
42 | AUCGAGCAAUAUUACGCACU | -1.25 ± 0.12 | -0.213 ± 0.14
43 | UUAUAGCAAUAUUACGACCG | -0.514 ± 0.16 | 0.446 ± 0.22
44 | CCCUAGCAAUAUUACGACUA | -2.51 ± 0.29 | -2.21 ± 0.21
45 | AGUCAGCAAUAUUACGGAGU | -1.63 ± 0.062 | -0.578 ± 0.073
46 | UACCAGCAAUAUUACGGCCU | -0.232 ± 0.078 | 0.212 ± 0.094
47 | GGGGAGCAAUAUUACGGUUG | -3.25 ± 0.21 | -2.18 ± 0.22
48 | UCACAGCAAUAUUACGAUAG | -2.75 ± 0.14 | -1.22 ± 0.12
49 | CGGAAGCAAUAUUACGUGGC | -3.67 ± 0.18 | -2.54 ± 0.23
50 | UACUAGCAAUAUUACGCGUG | -1.21 ± 0.079 | -0.559 ± 0.089

Row | Sequence | self-splicing fitness (ln) (30 °C) | self-splicing fitness (ln) (37 °C)
51 | GCUCAGCAAUAUUACGGGUC | -3.6 ± 0.22 | -2.91 ± 0.23
52 | GGGUAGCAAUAUUACGCACA | -0.833 ± 0.2 | 0.402 ± 0.22
53 | CGACAGCAAUAUUACGAUCC | -0.0657 ± 0.16 | -0.196 ± 0.19
54 | GACCAGCAAUAUUACGACCC | -0.132 ± 0.14 | 0.75 ± 0.18
55 | GCUGAGCAAUAUUACGCCCG | -2.34 ± 0.27 | -0.207 ± 0.42
56 | ACGGAGCAAUAUUACGGGGG | – | -1.58 ± 0.29
57 | GAAGAGCAAUAUUACGGACA | -1.14 ± 0.24 | 0.342 ± 0.24
58 | GCUGAGCAAUAUUACGUGAA | -2.63 ± 0.22 | -1.35 ± 0.23
59 | GGGAAGCAAUAUUACGUACU | -2.15 ± 0.21 | -2.2 ± 0.22
60 | AGUGAGCAAUAUUACGUGCC | -2.42 ± 0.49 | -1.3 ± 0.38
61 | CCGCAGCAAUAUUACGGGGG | -3.71 ± 0.18 | -3.2 ± 0.3
62 | AGGCAGCAAUAUUACGAUGA | -1.23 ± 0.13 | 0.113 ± 0.14
63 | GGAGAGCAAUAUUACGGCUG | -2.1 ± 0.21 | -0.692 ± 0.21
64 | GUGCAGCAAUAUUACGCCGA | -1.56 ± 0.13 | -0.832 ± 0.12
65 | UGCGAGCAAUAUUACGAAGG | -1.75 ± 0.2 | -1.91 ± 0.44
66 | CGCUAGCAAUAUUACGUGCA | -0.672 ± 0.095 | 0.116 ± 0.11
67 | UCUCAGCAAUAUUACGUAAA | -1.82 ± 0.15 | -1.04 ± 0.2
68 | CCCUAGCAAUAUUACGGCGG | -2.6 ± 0.14 | -2.42 ± 0.18
69 | ACAUAGCAAUAUUACGCUGC | -2.01 ± 0.22 | -0.747 ± 0.15
70 | CGAAAGCAAUAUUACGCACU | -0.573 ± 0.11 | 0.0275 ± 0.13
71 | UUGUAGCAAUAUUACGAACG | -1.69 ± 0.31 | -0.376 ± 0.26
72 | GUUUAGCAAUAUUACGUAAU | -1.15 ± 0.1 | 0.127 ± 0.13
73 | CUCGAGCAAUAUUACGUUCA | -3.47 ± 0.35 | –
74 | UCGUAGCAAUAUUACGCAUU | -3.24 ± 0.23 | -1.84 ± 0.15
75 | GAAAAGCAAUAUUACGACUU | -0.183 ± 0.063 | 0.52 ± 0.096

Row | Sequence | self-splicing fitness (ln) (30 °C) | self-splicing fitness (ln) (37 °C)
76 | UUAUAGCAAUAUUACGCGGC | -2.42 ± 0.49 | -2.4 ± 0.37
77 | UUCGAGCAAUAUUACGUCGA | – | -1.49 ± 0.19
78 | GCCCAGCAAUAUUACGAGCU | -3.47 ± 0.19 | -1.89 ± 0.15
79 | GUGAAGCAAUAUUACGUACA | -0.778 ± 0.082 | 0.51 ± 0.12
80 | CGUUAGCAAUAUUACGUUCC | – | -1.47 ± 0.45
81 | UGCUAGCAAUAUUACGGAUU | -1.7 ± 0.14 | -2.02 ± 0.13
82 | UAUGAGCAAUAUUACGUAAC | -2.86 ± 0.36 | –
83 | CGUAAGCAAUAUUACGAGAG | -3.56 ± 0.22 | -3.14 ± 0.28
84 | ACCUAGCAAUAUUACGGUUC | -4.77 ± 0.34 | -2.62 ± 0.24
85 | ACUUAGCAAUAUUACGCUCU | -0.715 ± 0.13 | -0.397 ± 0.14
86 | CAAUAGCAAUAUUACGGCCG | 0.102 ± 0.12 | 0.341 ± 0.16
87 | UAAGAGCAAUAUUACGCGAA | -2.74 ± 0.22 | -1.6 ± 0.16
88 | GUGCAGCAAUAUUACGCAAA | -0.928 ± 0.1 | -0.119 ± 0.13
89 | AAACAGCAAUAUUACGUUUG | -2.49 ± 0.1 | -1.51 ± 0.099
90 | CCGUAGCAAUAUUACGUCGU | -3.2 ± 0.18 | -1.25 ± 0.16
91 | UAUGAGCAAUAUUACGUAUU | – | -3.61 ± 0.35
92 | UCCGAGCAAUAUUACGCUCU | -3.31 ± 0.4 | –
93 | GACAAGCAAUAUUACGUCAC | -2.9 ± 0.23 | -2.75 ± 0.29
94 | AAUUAGCAAUAUUACGCAUG | -1.7 ± 0.15 | 0.109 ± 0.2
95 | AGGUAGCAAUAUUACGUCCC | -1.02 ± 0.025 | -0.535 ± 0.042
96 | GCUCAGCAAUAUUACGUGGC | -3.61 ± 0.19 | -2.79 ± 0.3
97 | CGUAAGCAAUAUUACGGUAG | -2.56 ± 0.14 | -1.4 ± 0.1
98 | CACUAGCAAUAUUACGGGUA | -0.856 ± 0.057 | -0.188 ± 0.064
